We go through three molecules from paper PMC8141644, “Design of a Trispecific Checkpoint Inhibitor and Natural Killer Cell Engager Based on a 2 + 1 Common Light Chain Antibody Architecture” (Frontiers in Immunology, 2021).

In assay [1] the target is T1, EGFR-ECD (UniProt P00533).
T1 construct: epidermal growth factor receptor (EGFR), extracellular domain (EGFR-ECD); With anti-human-Fc (AHC) sensors it was probably the His-tagged one; also called epidermal growth factor receptor extracellular domain
Nature of the assay: BLI; sterile filtered Expi293F cell culture supernatants of the light chain variants paired with the parental FEB4 heavy chain. The following applies: one partner purified. (In general: In BLI a coated tip is dipped into the sample, and binding shifts an interference pattern.)

For another assay, the target named is T2, PD-L1-ECD (Homo sapiens (; durvalumab …, UniProt Q9NZQ7).
T2 construct: also called His-tagged PD-L1; source: bought: R&D systems (His-tagged PD-L1)
T2 sequence (Q9NZQ7 19-238): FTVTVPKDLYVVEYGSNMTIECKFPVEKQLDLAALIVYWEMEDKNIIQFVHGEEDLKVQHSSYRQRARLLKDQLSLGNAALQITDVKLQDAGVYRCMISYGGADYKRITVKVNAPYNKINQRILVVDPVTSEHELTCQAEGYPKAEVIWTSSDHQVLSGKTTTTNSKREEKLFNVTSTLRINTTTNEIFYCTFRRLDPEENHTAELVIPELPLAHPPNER
Nature of the assay: BLI; affinity determination as previously described (54); purified antibodies (loaded onto AHC biosensors, as told for the anti-CD16a variants), antigen in solution; Octet RED96, 30 °C, 1000 rpm. The following applies: both partners purified.

Assay [2] addresses T1, EGFR-ECD. The assay is described as above. Particulars: both partners purified.

B1: FEB4 (antibody, V domains shown)
VH: AVTLDESGGGLQTPGGALSLVCKASGFTFSSHGMLWVRQAPGKGLEFVAGISTDGSSTSYGAPVKGRATISRDNGQSTVRLQLNNLRAEDTGTYYCAKDAYRCRNCAEDIDAWGHGTEVIVSS
VL: ALTQPSSVSANPGETVKITCSGGYSDDGSYYYYGWFQQKSPGSAPVTVIYDNTNRPSNIPSRFSGSTSGSTSTLTITGVRAEDEAVYYCGSIDTGYAGIFGAGTTLTVL
notes: IgG1 constant region (CH1, hinge, Fc); standard IgG1 format; also called parental FEB4 mAb; parental antibody; copies: 2 + 2
As to B1, the binding result in the assay with EGFR-ECD [1] is given as “binds”.

B2: ICI2 (antibody, V domains shown)
VH: AVTLDESGGGLQTPGGALSLVCKASGFDFSSYDMAWVRQAPGKGLEWVAGIKSNGPWTNYGAAVKGRATISRDNGQSTVRLQLNNLRAEDTAIYYCAKPGAGYVGWDAAGTIDSWGHGTEVIVSS
VL: ALTQPSSVSANPGETVKITCSGGGYDGSYYYGWYQQKSPGSAPVTVIYDNTNRPSNIPSRFSGSLSGSTNTLTITGVQAEDEAVYFCGGYDRSGGIFGGGTTLTVL
notes: VH of ICI2 (chicken-derived); IgG1 constant region (CH1, hinge, Fc) with the LALA mutation; as the light chain of m10 (dFEB1-VL common light chain); IgG1 LALA chimeric antibody; source: Expi293F, purified (Protein A chromatography); copies: 2 + 2
B2: the affinity in the assay with PD-L1-ECD, expressed as Kd, was 3 nM. This counts as single-digit nanomolar.

B3: dFEB4-1 (antibody, V domains shown)
VH: B1 VH
VL: B2 VL
notes: as the heavy chain of m8 (parental FEB4 heavy chain); dFEB1-VL, chicken VL from the light chain shuffling; human lambda CL; IgG; also called parental FEB4 heavy chain with dFEB1-VL; source: Expi293F, co-transfected; sterile filtered culture supernatant, and purified (Protein A chromatography); copies: 2 + 2
Turning to B3, in the assay with EGFR-ECD [2], binding was put at a Kd of 6.4 nM and the “fold improvement in KD against the parental FEB4” value turned out to be 5 fold.
